Test results taken from patent US20240317834A1, “COMPOSITIONS AND METHODS FOR NEUROLOGICAL DISEASES” (CODA BIOTHERAPEUTICS, INC., priority 2020, published 2024).

Test system: Lenti-X 293T cells
Experiment: YFP fluorescence quenching anion reporter plate reader assay of engineered receptors stimulated with acetylcholine or a non-native ligand
Assay type: cell-based
Source text: To screen these mutant LGICs for those having novel response profiles to ligands, an anion reporter assay was developed to assess the function of the LGICs in a high throughput format. In this assay, cells expressing a YFP reporter whose fluorescence is quenched in the presence of anion are transfected with DNA encoding the channel of interest. Upon exposure to ligand, channels that are activated will flux anion, resulting in a dose-dependent quench of the YFP that can be detected on a plate reader. The greater the quench signal (i.e., the more positive the value), the higher the ligand activity on the receptor is.
Lenti-X 293T cells (LX293T, Clontech) were maintained in DMEM containing 10% FBS and 1% penicillin/streptomycin (Invitrogen). […] Two days before assay, cells were split at a density of 20,000 cells/well in a 96-well tissue culture plate coated with poly-d lysine (Thermo Scientific). The next day, the cells were transiently transfected with 0.1 μg of DNA per well using standard Fugene protocol (Promega). On the day of assay, cells were washed 2 times in 1× extracellular solution (1×ECS: 140 mM NaCl, 5 mM KCl, 1 mM MgCl2, 2 mM CaCl2), 10 mM HEPES, 10 mM glucose, pH 7.2, mOsms 300). After the last wash, 100 μL of 1×ECS was added to the wells and the plate was incubated at 37° C. for 30 min. While incubating the plate, the drugs were diluted to a 2× concentration in 1×ECS-NaI (same components as 1×ECS except the 140 mM NaCl was replaced by 140 mM NaI). The plates were then read on a Flexstation3 (Molecular Devices). Each well, 8 wells at a time, of the plate is read for 2 min using a Flexstation3 (Molecular Devices) as follows: 1) a baseline YFP fluorescence is read for 17 sec, 2) 100 μL of ligand is added, and 3) the changes in YFP fluorescence are then measured every 1.3 sec for 1 minute and 43 seconds. The percent quench is calculated from the average fluorescence of the last 10 seconds of the read divided by the baseline average of the first 15 seconds prior to the ligand addition.
FIGS. 1A-1J provide heat maps of the percent quench of YFP fluorescence following stimulation by various doses of either acetylcholine or the non-native ligand as indicated in the Figures. CODA71 (SEQ ID NO: 33) was used as a control, and CODA75 (SEQ ID NO: 29, a non-responding chimeric engineered receptor) was used as the negative control. Quenching of the fluorescence signal, as indicated by blue shaded cells, indicate the level of engineered receptor activation by the non-native ligand at that concentration.

B1: CODA283: engineered chimeric LGIC receptor, Y115E_N379K in SEQ ID NO: 33 (protein)
chain: MRCSPGGVWLALAASLLHVSLQGEFQRKLYKELVKNYNPLERPVANDSQPLTVYFSLSLLQIMDVDEKNQVLTTNIWLQMSWTDHYLQWNVSEYPGVKTVRFPDGQIWKPDILLENSADERFDATFHTNVLVNSSGHCQYLPPGIFKSSCPMDLKNFPMDVQTCKLKFGSWSYGGWSLDLQMQEADISGYIPNGEWDLVGIPGKRSERFYECCKEPYPDVTFTVTMRRRMGYYLIQMYIPSLLIVILSWISFWINMDAAPARVGLGITTVLTMTTQSSGSRASLPKVSYVKAIDIWMAVCLLFVFSALLEYAAVNFVSRQHKELLRFRRKRRHHKSPMLNLFQEDEAGEGRFNFSAYGMGPACLQAKDGISVKGANNSKTTNPPPAPSKSPEEMRKLFIQRAKKIDKISRIGFPMAFLIFNMFYWIIYKIVRREDVHNQ
modifications: synthetic sequence of chimeric LGIC
YFP fluorescence quenching using CNL001 (1 nM CNL001, first column): −0.713%
YFP fluorescence quenching using CNL001 (1 nM CNL001, second column): −0.621%
YFP fluorescence quenching using TC-5619/Bradanicline (1 nM brd): 0.59%
YFP fluorescence quenching using TC-5619/Bradanicline (3 nM brd): −6.41%
YFP fluorescence quenching using CNL001 (10 nM CNL001, first column): 7.739%
YFP fluorescence quenching using CNL001 (10 nM CNL001, second column): 15.277%
YFP fluorescence quenching using TC-5619/Bradanicline (10 nM brd): −1.58%
YFP fluorescence quenching using TC-5619/Bradanicline (30 nM brd): −14.24%
YFP fluorescence quenching using Facinicline (30 nM fac): 6.39
YFP fluorescence quenching using CNL001 (50 nM CNL001, first column): 19.489%
YFP fluorescence quenching using CNL001 (50 nM CNL001, second column): 33.703%
YFP fluorescence quenching using ABT-126 (50 nM abt): −22.65%
YFP fluorescence quenching using CNL001 (100 nM CNL001, first column): 56.886%
YFP fluorescence quenching using CNL001 (100 nM CNL001, second column): 60.171%
YFP fluorescence quenching using CNL002 (100 nM CNL002): −5.81%
YFP fluorescence quenching using ABT-126 (100 nM abt): −20.55%
YFP fluorescence quenching using AZD-0328 (100 nM azd0328): −2.1%
YFP fluorescence quenching using TC-5619/Bradanicline (100 nM brd): 33.36%
YFP fluorescence quenching using ABT-126 (300 nM abt): −12.93%
YFP fluorescence quenching using AZD-0328 (300 nM azd0328): 38.2%
YFP fluorescence quenching using TC-5619/Bradanicline (300 nM brd): 43.81%
YFP fluorescence quenching using Facinicline (300 nM fac): 78.36
YFP fluorescence quenching using CNL001 (1 uM CNL001, first column): 69.836%
YFP fluorescence quenching using CNL001 (1 uM CNL001, second column): 73.855%
YFP fluorescence quenching using CNL002 (1 uM CNL002): 9.69%
YFP fluorescence quenching using ABT-126 (1 uM abt): 1.71%
YFP fluorescence quenching using TC-5619/Bradanicline (1 uM brd): 75.39%
YFP fluorescence quenching using TC-6987 (1 uM tc6987): −9.54
YFP fluorescence quenching using Facinicline (10 uM fac): 81.93
YFP fluorescence quenching using TC-6987 (10 uM tc6987): −7.06
YFP fluorescence quenching using CNL002 (30 uM CNL002): −12.85%
YFP fluorescence quenching using AZD-0328 (30 uM azd0328): 79.44%
YFP fluorescence quenching using Facinicline (30 uM fac): 78.63
YFP fluorescence quenching using TC-6987 (500 uM tc6987): −15.15
percent quench of YFP fluorescence, 10 uM ach (acetylcholine 10 uM): −6.16%
percent quench of YFP fluorescence, 100 uM ach (acetylcholine 100 uM): −11.12%
percent quench of YFP fluorescence, 1 mM ach (acetylcholine 1 mM): −2.74%
percent quench of YFP fluorescence, 3 mM ach (acetylcholine 3 mM): 53.61%
